The values below come from PMC8298264, “Function of cofactor Akirin2 in the regulation of gene expression in model human neutrophil-like HL60 cells” (Bioscience Reports, 2021).

B1: sp¦Q9BVC6¦TM109_HUMAN (protein, UniProt Q9BVC6 34-243, looked up)
Voltage-gated monoatomic …: QSRRDFAPPGQQKREAPVDVLTQIGRSVRGTLDAWIGPETMHLVSESSSQVLWAISSAISVAFFALSGIAAQLLNALGLAGDYLAQGLKLSPGQVQTFLLWGAGALVVYWLLSLLLGLVLALLGRILWGLKLVIFLAGFVALMRSVPDPSTRALLLLALLILYALLSRLTGSRASGAQLEAKVRGLERQVEELRWRQRRAAKGARSVEEE
B2: sp¦O95104¦SCAF4_HUMAN (protein, UniProt O95104 1-1147, looked up)
SR-related and CTD-associated …: MDAVNAFNQELFSLMDMKPPISRAKMILITKAAIKAIKLYKHVVQIVEKFIKKCKPEYKVPGLYVIDSIVRQSRHQFGTDKDVFGPRFSKNITATFQYLYLCPSEDKSKIVRVLNLWQKNGVFKIEIIQPLLDMAAGTSNAAPVAENVTNNEGSPPPPVKVSSEPPTQATPNSVPAVPQLPSSDAFAAVAQLFQTTQGQQLQQILQTFQQPPKPQSPALDNAVMAQVQAITAQLKTTPTQPSEQKAAFPPPEQKTAFDKKLLDRFDYDDEPEAVEESKKEDTTAVTTTAPAAAVPPAPTATVPAAAAPAAASPPPPQAPFGFPGDGMQQPAYTQHQNMDQFQPRMMGIQQDPMHHQVPLPPNGQMPGFGLLPTPPFPPMAQPVIPPTPPVQQPFQASFQAQNEPLTQKPHQQEMEVEQPCIQEVKRHMSDNRKSRSRSASRSPKRRRSRSGSRSRRSRHRRSRSRSRDRRRHSPRSRSQERRDREKERERRQKGLPQVKPETASVCSTTLWVGQLDKRTTQQDVASLLEEFGPIESINMIPPRGCAYIVMVHRQDAYRALQKLSRGNYKVNQKSIKIAWALNKGIKADYKQYWDVELGVTYIPWDKVKPEELESFCEGGMLDSDTLNPDWKGIPKKPENEVAQNGGAETSHTEPVSPIPKPLPVPVPPIPVPAPITVPPPQVPPHQPGPPVVGALQPPAFTPPLGIPPPGFGPGVPPPPPPPPFLRPGFNPMHLPPGFLPPGPPPPITPPVSIPPPHTPPISIPNSTIAGINEDTTKDLSIGNPIPTVVSGARGNAESGDSVKMYGSAVPPAAPTNLPTPPVTQPVSLLGTQGVAPGPVIGLQAPSTGLLGARPGLIPLQRPPGMPPPHLQRFPLMPPRPMPPHMMHRGPPPGPGGFAMPPPHGMKGPFPPHGPFVRPGGMPGLGGPGPGPGGPEDRDGRQQPPQQPQQQPQPQAPQQPQQQQQQQPPPSQQPPPTQQQPQQFRNDNRQQFNSGRDQERFGRRSFGNRVENDRERYGNRNDDRDNSNRDRREWGRRSPDRDRHRDLEERNRRSSGHRDRERDSRDRESRREKEEARGKEKPEVTDRAGGNKTVEPPISQVGNVDTASELEKGVSEAAVLKPSEELPAEATSSVEPEKDSGSAAEAPR
B3: sp¦O75663¦TIPRL_HUMAN (protein, UniProt O75663 1-272, looked up)
TIP41-like protein: MMIHGFQSSHRDFCFGPWKLTASKTHIMKSADVEKLADELHMPSLPEMMFGDNVLRIQHGSGFGIEFNATDALRCVNNYQGMLKVACAEEWQESRTEGEHSKEVIKPYDWTYTTDYKGTLLGESLKLKVVPTTDHIDTEKLKAREQIKFFEEVLLFEDELHDHGVSSLSVKIRVMPSSFFLLLRFFLRIDGVLIRMNDTRLYHEADKTYMLREYTSRESKISSLMHVPPSLFTEPNEISQYLPIKEAVCEKLIFPERIDPNPADSQKSTQVE
B4: sp¦P21964¦COMT_HUMAN (protein, UniProt P21964 1-271, looked up)
Catechol O-methyltransferase: MPEAPPLLLAAVLLGLVLLVVLLLLLRHWGWGLCLIGWNEFILQPIHNLLMGDTKEQRILNHVLQHAEPGNAQSVLEAIDTYCEQKEWAMNVGDKKGKIVDAVIQEHQPSVLLELGAYCGYSAVRMARLLSPGARLITIEINPDCAAITQRMVDFAGVKDKVTLVVGASQDIIPQLKKKYDVDTLDMVFLDHWKDRYLPDTLLLEECGLLRKGTVLLADNVICPGAPDFLAHVRGSSCFECTHYQSFLEYREVVDGLEKAIYKGPGSEAGP
B5: sp¦Q9Y5J7¦TIM9_HUMAN (protein, UniProt Q9Y5J7 2-89, looked up)
Mitochondrial import inner …: AAQIPESDQIKQFKEFLGTYNKLTETCFLDCVKDFTTREVKPEETTCSEHCLQKYLKMTQRISMRFQEYHIQQNEALAAKAGLLGQPR
B6: sp¦Q9H9B4¦SFXN1_HUMAN (protein, UniProt Q9H9B4 2-322, looked up)
Sideroflexin-1: SGELPPNINIKEPRWDQSTFIGRANHFFTVTDPRNILLTNEQLESARKIVHDYRQGIVPPGLTENELWRAKYIYDSAFHPDTGEKMILIGRMSAQVPMNMTITGCMMTFYRTTPAVLFWQWINQSFNAVVNYTNRSGDAPLTVNELGTAYVSATTGAVATALGLNALTKHVSPLIGRFVPFAAVAAANCINIPLMRQRELKVGIPVTDENGNRLGESANAAKQAITQVVVSRILMAAPGMAIPPFIMNTLEKKAFLKRFPWMSAPIQVGLVGFCLVFATPLCCALFPQKSSMSVTSLEAELQAKIQESHPELRRVYFNKGL
B7: sp¦P61019¦RAB2A_HUMAN (protein, UniProt P61019 2-212, looked up)
Ras-related protein Rab-2A: AYAYLFKYIIIGDTGVGKSCLLLQFTDKRFQPVHDLTIGVEFGARMITIDGKQIKLQIWDTAGQESFRSITRSYYRGAAGALLVYDITRRDTFNHLTTWLEDARQHSNSNMVIMLIGNKSDLESRREVKKEEGEAFAREHGLIFMETSAKTASNVEEAFINTAKEIYEKIQEGVFDINNEANGIKIGPQHAATNATHAGNQGGQQAGGGCC
B8: sp¦Q53GQ0¦DHB12_HUMAN (protein, UniProt Q53GQ0 1-312, looked up)
Very-long-chain 3-oxoacyl-CoA …: MESALPAAGFLYWVGAGTVAYLALRISYSLFTALRVWGVGNEAGVGPGLGEWAVVTGSTDGIGKSYAEELAKHGMKVVLISRSKDKLDQVSSEIKEKFKVETRTIAVDFASEDIYDKIKTGLAGLEIGILVNNVGMSYEYPEYFLDVPDLDNVIKKMININILSVCKMTQLVLPGMVERSKGAILNISSGSGMLPVPLLTIYSATKTFVDFFSQCLHEEYRSKGVFVQSVLPYFVATKLAKIRKPTLDKPSPETFVKSAIKTVGLQSRTNGYLIHALMGSIISNLPSWIYLKIVMNMNKSTRAHYLKKTKKN
B9: sp¦P10515¦ODP2_HUMAN (protein, UniProt P10515 87-647, looked up)
Dihydrolipoyllysine-residue …: SLPPHQKVPLPSLSPTMQAGTIARWEKKEGDKINEGDLIAEVETDKATVGFESLEECYMAKILVAEGTRDVPIGAIICITVGKPEDIEAFKNYTLDSSAAPTPQAAPAPTPAATASPPTPSAQAPGSSYPPHMQVLLPALSPTMTMGTVQRWEKKVGEKLSEGDLLAEIETDKATIGFEVQEEGYLAKILVPEGTRDVPLGTPLCIIVEKEADISAFADYRPTEVTDLKPQVPPPTPPPVAAVPPTPQPLAPTPSAPCPATPAGPKGRVFVSPLAKKLAVEKGIDLTQVKGTGPDGRITKKDIDSFVPSKVAPAPAAVVPPTGPGMAPVPTGVFTDIPISNIRRVIAQRLMQSKQTIPHYYLSIDVNMGEVLLVRKELNKILEGRSKISVNDFIIKASALACLKVPEANSSWMDTVIRQNHVVDVSVAVSTPAGLITPIVFNAHIKGVETIANDVVSLATKAREGKLQPHEFQGGTFTISNLGMFGIKNFSAIINPPQACILAIGASEDKLVPADNEKGFDVASMMSVTLSCDHRVVDGAVGAQWLAEFRKYLEKPITMLL
B10: sp¦Q9H939¦PPIP2_HUMAN (protein, UniProt Q9H939 1-334, looked up)
Proline-serine-threonine …: MTRSLFKGNFWSADILSTIGYDNIIQHLNNGRKNCKEFEDFLKERAAIEERYGKDLLNLSRKKPCGQSEINTLKRALEVFKQQVDNVAQCHIQLAQSLREEARKMEEFREKQKLQRKKTELIMDAIHKQKSLQFKKTMDAKKNYEQKCRDKDEAEQAVSRSANLVNPKQQEKLFVKLATSKTAVEDSDKAYMLHIGTLDKVREEWQSEHIKACEAFEAQECERINFFRNALWLHVNQLSQQCVTSDEMYEQVRKSLEMCSIQRDIEYFVNQRKTGQIPPAPIMYENFYSSQKNAVPAGKATGPNLARRGPLPIPKSSPDDPNYSLVDDYSLLYQ
B11: sp¦Q15645¦PCH2_HUMAN (protein, UniProt Q15645 1-432, looked up)
Pachytene checkpoint protein …: MDEAVGDLKQALPCVAESPTVHVEVHQRGSSTAKKEDINLSVRKLLNRHNIVFGDYTWTEFDEPFLTRNVQSVSIIDTELKVKDSQPIDLSACTVALHIFQLNEDGPSSENLEEETENIIAANHWVLPAAEFHGLWDSLVYDVEVKSHLLDYVMTTLLFSDKNVNSNLITWNRVVLLHGPPGTGKTSLCKALAQKLTIRLSSRYRYGQLIEINSHSLFSKWFSESGKLVTKMFQKIQDLIDDKDALVFVLIDEVESLTAARNACRAGTEPSDAIRVVNAVLTQIDQIKRHSNVVILTTSNITEKIDVAFVDRADIKQYIGPPSAAAIFKIYLSCLEELMKCQIIYPRQQLLTLRELEMIGFIENNVSKLSLLLNDISRKSEGLSGRVLRKLPFLAHALYVQAPTVTIEGFLQALSLAVDKQFEERKKLAAYI
B12: sp¦Q96JJ7¦TMX3_HUMAN (protein, UniProt Q96JJ7 25-454, looked up)
Protein disulfide-isomerase …: KGFVEDLDESFKENRNDDIWLVDFYAPWCGHCKKLEPIWNEVGLEMKSIGSPVKVGKMDATSYSSIASEFGVRGYPTIKLLKGDLAYNYRGPRTKDDIIEFAHRVSGALIRPLPSQQMFEHMQKRHRVFFVYVGGESPLKEKYIDAASELIVYTYFFSASEEVVPEYVTLKEMPAVLVFKDETYFVYDEYEDGDLSSWINRERFQNYLAMDGFLLYELGDTGKLVALAVIDEKNTSVEHTRLKSIIQEVARDYRDLFHRDFQFGHMDGNDYINTLLMDELTVPTVVVLNTSNQQYFLLDRQIKNVEDMVQFINNILDGTVEAQGGDSILQRLKRIVFDAKSTIVSIFKSSPLMGCFLFGLPLGVISIMCYGIYTADTDGGYIEERYEVSKSENENQEQIEESKEQQEPSSGGSVVPTVQEPKDVLEKKKD

One test deals with human HL60 cells. Nature of the test: SWATH-MS proteomics, differential protein representation, akirin2 KO vs WT HL60 cells. Format: cell-based. Conditions: KO vs WT; akirin2 KO vs WT HL60 cells; sheet "Under-represented in KO". In outline:
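Differential representation compares akirin2 KO with WT HL60 across three biological replicates, 5 µg digest each, acquired by data-independent SWATH on a 120-min gradient. Library built from combined IDA runs searched with Paragon; proteins accepted at 1% FDR, with total-area-sum normalization.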
For B1, the “Fold Change” value was 0.5517 and the “Log (Fold Change)” value is -0.2583.

For the molecule B2, the “Fold Change” value stood at 0.586 and the “Log (Fold Change)” value is recorded as -0.2321.

In the case of B3, the “Fold Change” value worked out at 0.5915 and the “Log (Fold Change)” value is reported as -0.228.

As to B4, the “Fold Change” value came to 0.567 and the “Log (Fold Change)” value is recorded as -0.2464.

Take B5: the “Fold Change” value is listed as 0.5881 and the “Log (Fold Change)” value is -0.2305.

As to B6, the “Fold Change” value is 0.5707 and the “Log (Fold Change)” value is recorded as -0.2436.

Regarding B7, the “Fold Change” value was determined as 0.5636 and the “Log (Fold Change)” value is -0.249.

B8: the “Fold Change” value was found to be 0.5753 and the “Log (Fold Change)” value is -0.2401.

With B9, the “Fold Change” value is on record as 0.571 and the “Log (Fold Change)” value is recorded as -0.2434.

On to B10, for which the “Fold Change” value is 0.5689 and the “Log (Fold Change)” value is listed as -0.2449.

On to B11, for which the “Fold Change” value is on record as 0.5524 and the “Log (Fold Change)” value was -0.2577.

The same test, now with this note: akirin2 KO vs WT HL60 cells; sheet "Under-represented in KO".
Consider B12, for which the “Fold Change” value was 0.267 and the “Log (Fold Change)” value is -0.5736.
